Earlier results on one substance are cited in article PMC10178479.

For this data set, the target named is Mint2 (Homo sapiens) (UniProt Q99767).
UniProt Q99767, sequence (Q99767 whole entry): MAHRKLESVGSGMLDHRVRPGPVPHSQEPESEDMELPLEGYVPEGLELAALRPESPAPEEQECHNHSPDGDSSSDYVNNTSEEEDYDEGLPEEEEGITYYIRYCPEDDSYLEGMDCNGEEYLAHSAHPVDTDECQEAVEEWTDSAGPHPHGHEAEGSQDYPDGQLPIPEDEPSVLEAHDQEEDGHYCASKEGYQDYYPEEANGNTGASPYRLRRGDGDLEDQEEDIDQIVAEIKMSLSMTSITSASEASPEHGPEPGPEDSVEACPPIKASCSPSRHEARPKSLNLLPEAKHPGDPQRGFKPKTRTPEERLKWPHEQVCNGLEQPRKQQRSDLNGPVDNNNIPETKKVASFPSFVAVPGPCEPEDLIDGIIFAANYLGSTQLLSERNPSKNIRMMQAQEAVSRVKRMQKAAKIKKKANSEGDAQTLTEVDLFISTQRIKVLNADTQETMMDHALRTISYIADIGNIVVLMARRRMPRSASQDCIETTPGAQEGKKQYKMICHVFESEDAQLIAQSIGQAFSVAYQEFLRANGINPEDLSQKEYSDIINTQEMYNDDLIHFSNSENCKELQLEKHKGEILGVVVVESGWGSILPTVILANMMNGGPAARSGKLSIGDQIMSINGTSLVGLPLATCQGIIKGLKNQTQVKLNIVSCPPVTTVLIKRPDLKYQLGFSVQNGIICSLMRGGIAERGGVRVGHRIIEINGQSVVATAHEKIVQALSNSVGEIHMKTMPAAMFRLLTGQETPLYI

By Ki is commonly meant a measure of affinity in units of concentration, obtained from inhibition or displacement. With APP peptide (APPWT), the Ki was 4 µM.
